Source: the supplement of paper PMC12636428

Test system: Saccharomyces cerevisiae
Assay: transcriptional activation domain activity (GFP:mCherry ratio, weighted mean of sorted bins, harmonized to initial dataset scale) (arbitrary fluorescence ratio units); higher = stronger transcriptional activation
Conditions: beta-estradiol 1 µM; induction time 4 h
Summary of the method: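 The activation activity of each tile is the read-weighted mean of bin median fluorescence, averaged across its barcodes and mapped linearly onto the scale of the initial dataset. Tiles were fused to an estradiol-inducible synthetic transcription factor, barcoded, and integrated at URA3 in yeast diploids carrying a GFP reporter. Induction used 1 uM beta-estradiol in SC for 4 hours at 30 °C, after which cells were sorted into 8 GFP:mCherry bins, and any tile with fewer than 50 reads was dropped.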

Sequence | transcriptional activation domain activity
STTRQQRASLPLIHDIESFANDSVMANPLSDSASFLSEENEDDAFGALNYNSL | 51500
STTSDGAPGSEVPLKRRPGRPKGSKTKKRKIDTAPVPIAAAGTQPAASSTTAP | 35700
STTYYVLSLITFSSFPSIMVSYYSLLFSFFFISLCFLFPLPFVSSLFSHLILF | 40300
STVHNLCELVFLPELFGFCCFSMRFFVFIDLLGTLILPATVVYLLYLIITVAT | 62500
STVHNLVELMPLQQLCGFCCFSMRFVVFLDLLSTVVAPVIVVYIGYLIYILAY | 56100
SVASEKGADDSAEEDHEHEHRHKKRRHREHREREHRSSRHKHRSSRRHAEEVD | 21000
SVASMNSNYLLPVNSHGYKHISNLDELDDLLSLTYSDNNLLSASNNSDFNNSN | 88400
SVCHRAGEGDEEVEDEEEGEESDEEEEDGDDEKTADGGRAASARKGRDAGAGA | 13000
SVCNDGNAGDFLYDCFGEFNNQPFNWDVLSPRVAANPYYSFDDFGSSLFILFQ | 106000
SVEDAADTTVSTDLKAADDATTEAAADDDAPRKKHKKSKSKKDKHRRAAADAE | 11600
SVEVEMEDAPKPKRRGRPPGSGKKKAPAGEDAAAAAPEKKKRTPAKKASAGSA | 42700
SVGASSGSGSGSGKRRGEEGEEGDEGEEGEEGDEGEEGDEEEGVEELVQGEGQ | 7800
SVKHIITLFDDVRQNLAHAGLVALLLAQPHMIVLLTDVWLHMFRYLSAFEITI | 52100
SVKTKAAGKGKPKTTNDKATKSSEPRKAAKVSDDETKPTSNGAASAKAGGERQ | 23600
SVLHTMYVVAIKDSSAWYGDSPADLCMIGFWNLVIVWLKLLIPWRFFRLWAIL | 55900
SVMKTLLDERRTSGTQPTTAPVAAEEPRLENVALENFVSIGWKLLDDSELGWY | 71200
SVRHWELRVRAKYGRVLCRFLAQIEFDPFLLSDSSKRAILTVLRAVADIMVEC | 42400

Sequence | transcriptional activation domain activity
SVSRDRGAFEWAGDNLMTVFCQPYRLVDPEMWCLLYDVLRFNACCRSIIATPY | 63900
SVSRLHAKIEYEEEEERFVLVVVGRNGAWVDGVWSGAGSRVPLCERSQIQIAS | 45800
SVSRLHAKIEYEEENERFVLVVLGRNGAWVDGIWSGSGSRVPLGPRSQIQIAT | 31600
SVTSEAIQVCVAARAREGEANRAVRNVIAEALRVPKSNVQVAKGLKSREKTLI | 43300
SVTSTEELEITVETLRELAAHPAVIKGKQCRELRGAVHEFRQACTTGVNAAGT | 53600
SVVKFIEEYQAYFNTSYEVFLLLYISFILVTTLWCTSLIIYRILTVHLIEVLV | 29800
SVVLGVLHMSLSICTQVPNFIHFGRPSSIITEFLPQILFLHCLFGYLVFMIIY | 79100
SVYALVHFGAFYRSSHGPIRMLALHIQAFYNLCSLLFSWFAIANLWLTFSIII | 67600
SVYCLLLILFIPYPFSDVFAKCKHASLEGLACGDFPHNQLSIYLAAILCLLIA | 49800
SVYLHALKKVITTWKGEVLPIILARKIQWTEWEIKDLEYEITHFYVKTFFMTI | 47900
SWFDIDEENGDVISRLEWYHLVQMSLVHATILIWWTTGKVLININVSMAVRCG | 54100
SWFIHFYILSLSCTVFWAVQFVIDGTVLEVIIKNQLARCTSSMTLSQVLLAWF | 50300
SWFIYSYDKEWIFLWHIPFPYPPIRTPSIPWVLYGLSVRFWSFISLLICNFFC | 63300
SWLRGYEVFKLQVSSTMIKCLRGMLCFIPVVCLGPNIVLLLGLPIQTQVKWFL | 61100
SWNAPSLTNSWDSPPGNRTGAVTIGDESINGSEMPDFSLDLVSNDRQTGLEAL | 32800
SWRDPSYIYSKIGLCSTASLFLGLSFLNQPVSLQGVQNQIFSFFMLLVIQVFM | 60200
SWRRLPLAMLNFSRAVTFRWTIIIARTYSLNLADVLLTGMYITILFTWNFHNS | 40000
